Consider eight molecules from patent US20230088269A1 (ARGENX BVBA, published 2023).

Test [1] deals with T1, recombinant human IL-22R (R&D Systems / Biotechne 2770-LR) (human, UniProt Q8N6P7 16-228).
T1 construct: Bought soluble recombinant protein (said to be 25 kDa); also called hIL22R; IL-22R1
T1 sequence: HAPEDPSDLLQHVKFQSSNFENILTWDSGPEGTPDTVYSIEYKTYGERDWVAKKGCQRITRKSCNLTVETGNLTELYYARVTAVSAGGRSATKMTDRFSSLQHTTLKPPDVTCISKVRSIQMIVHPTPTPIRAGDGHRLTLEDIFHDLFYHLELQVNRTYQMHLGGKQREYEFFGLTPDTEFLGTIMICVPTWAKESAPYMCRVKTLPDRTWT
Description: SPR (Biacore), purified Fab. In general terms: SPR reads the build-up and loss of mass on a sensor chip optically.

Test [2] deals with T2, recombinant mouse IL22R (monomeric, R&D Systems cat 4248-MR) (mouse, UniProt Q80XZ4 16-230).
T2 construct: extracellular domain; also called murine IL-22R; mIL22R
T2 sequence (looked up): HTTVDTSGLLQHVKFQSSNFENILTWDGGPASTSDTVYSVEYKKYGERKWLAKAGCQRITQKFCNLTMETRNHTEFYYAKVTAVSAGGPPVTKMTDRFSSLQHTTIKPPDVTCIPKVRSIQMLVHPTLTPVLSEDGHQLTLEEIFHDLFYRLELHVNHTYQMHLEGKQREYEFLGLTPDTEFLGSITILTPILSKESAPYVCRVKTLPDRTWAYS
Description: SPR (Biacore), purified Fab.

Test [3] concerns the target T1, recombinant human IL-22R (R&D Systems / …). Description: off-rate of Fab fragment; method not stated.
Test [4] has as its target T3, rhIL22R-Fc (rhesus IL22R ECD fused to human Fc) (rhesus monkey, UniProt G7MHN4 16-228).
T3 construct: also called rhesus IL-22R1
T3 sequence: T1 sequence with S18N, L73H, S99N, T105A, S115P, K167E, A194S, E196K, K205R
Description: off-rate of Fab fragment; method not stated.

Test [5] concerns the target T2, recombinant mouse IL22R (monomeric, R&D …). Description: ELISA and SPR (Biacore), mAb. As to the method: After production and purification of the cyIL22R-Fc and the rhIL22R-Fc, the binding specificity to cynomolgus, rhesus and mouse IL22R ECD of all the antibodies from primary selection was tested in ELISA and by SPR (Biacore). Monomeric mouse IL22R was purchased from R&D Systems (cat 4248-MR).
A general note: In an ELISA, binding on a coated surface is turned into a signal by an enzyme label.

Test [6] has as its target T1, recombinant human IL-22R (R&D Systems / …). Description: SPR (Biacore 3000), IL22R on CM5 chip, IgG1 injected. As to the method:
In addition to the potency on cells, the in vitro binding kinetics and blocking activity of the purified antibodies were measured in Biacore (3000). […] Antibodies tested at a range of concentrations and prepared in HBSEP buffer at pH 7.4 (Biacore) were injected at 30 μl/min for 60 second and washed with HBSEP buffer at pH 7.4 (Biacore) for 10-20 min. The obtained sensograms were analyzed with the BIAevaluation software and kinetics were determined using standard fitting (Langmuir 1:1 with mass transfer).

The target in test [7] is T4, human IL-22R expressed on cells (BW-hIL22R, Baf3-hIL22R/IL20Rb, transfected HEK, primary human skin cells) (human, UniProt Q8N6P7 16-574).
T4 sequence: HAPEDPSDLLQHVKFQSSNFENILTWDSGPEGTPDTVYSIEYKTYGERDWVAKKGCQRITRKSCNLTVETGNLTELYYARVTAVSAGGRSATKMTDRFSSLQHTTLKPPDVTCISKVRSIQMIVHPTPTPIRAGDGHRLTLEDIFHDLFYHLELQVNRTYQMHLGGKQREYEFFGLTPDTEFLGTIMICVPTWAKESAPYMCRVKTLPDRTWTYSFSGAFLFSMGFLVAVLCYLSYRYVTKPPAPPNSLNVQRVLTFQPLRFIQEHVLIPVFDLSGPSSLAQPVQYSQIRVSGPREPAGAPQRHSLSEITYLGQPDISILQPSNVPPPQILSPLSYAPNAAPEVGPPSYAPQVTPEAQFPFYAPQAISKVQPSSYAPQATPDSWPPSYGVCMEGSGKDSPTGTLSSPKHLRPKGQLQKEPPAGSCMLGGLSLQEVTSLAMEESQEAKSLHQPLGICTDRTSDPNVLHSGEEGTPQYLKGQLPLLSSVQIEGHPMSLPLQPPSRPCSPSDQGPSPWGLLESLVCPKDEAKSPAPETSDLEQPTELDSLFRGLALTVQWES
Nature of the test: cell-based or functional assay.

Test [8] concerns the target T4, human IL-22R expressed on cells …. Description: cell-based or functional assay. This is another data set of the same source.
The target of test [9] is rhesus IL22R ECD - human TM - human ICD chimera on transfected HEK cells (rhesus monkey; human, UniProt Q8N6P7 229-574). Description: cell-based or functional assay.
Test [10] concerns the target T4, human IL-22R expressed on cells …. Description: cell-based or functional assay. The source holds these as a separate data set.
Test [11] has as its target cynoIL22R_ECD-humanTM_humanICD chimera on transfected cells (cynomolgus monkey; human, UniProt Q8N6P7 229-574). Description: cell-based or functional assay.
Test [12] addresses T1, recombinant human IL-22R (R&D Systems / …). Nature of the test: SPR (Biacore), hIL22R on CM5 chip, mAb injected, 1:1 Langmuir. As to the method:
The affinity of the 230C9 and 223G5 antibodies was measured using SPR ([…]). In brief, 250RU of human IL22R (Biotechne, 2770-LR) was coated onto a CM5 chip using standard methods (EDC coupling of IL22R at a concentration of 2 μg/ml in acetate buffer pH4.5). Then various concentrations of antibody were injected in HBSEP+ buffer (pH 7.4) for 2 minutes. The binding was monitored also during a 10 min washing (HBSEP+).

Where a chain is given by its changes, count along the chain named.

B1: 157A2 Fab (Fab, V domains shown)
VH: QVQLVESGGGLVQPGGSLRLSCAASGFTFSSYDMSWVRQAPGKGLEWVSSIYNDGSNTAYSDSVKGRFTISRDNAKNTLYLQMNSLKSEDTAVYYCAKVGFSGTYYSESWGQGTQVTVSS
VL: NFMLTQPSAVSVSLGQTAKITCQGGYYAHWYQQKPGQAPVLVIYGNNNRPSGIPERFSGSSSGNTATLTISGAQAEDEAEYYCQSGSSSANAVFGGGTHLTVL
notes: VH family 4; purified llama Fab
The term koff denotes a measure of how fast the partners let go of each other. Regarding B1, the koff in test [1] was determined as 0.0037 s⁻¹. In [2], the binding result is reported as “no binding”.

B2: 230C9 Fab (Fab, V domains shown)
VH: B1 VH with S35N, G55A, A75S, K87R, S88A, Q115L
VL: SYELTQPSSVSVALGQTARITCQGGYYAHWYQQKPGQAPVLVIYGQNNRPSGIPERFSGSGAGNTATLTISRAQAEDEADYYCQSGSSSSNAVFGGGTKLTVL
notes: Germlined variant of 218A7
In the case of B2, the koff in test [3] was 0.000352 s⁻¹; in test [4], 0.000436 s⁻¹.

B3: 157A2 mAb (antibody, IgG1, V domains shown)
VH: B1 VH
VL: B1 VL
notes: VH family 4; produced as IgG1 with human constant domains
Usually Kd stands for the constant that tells how readily two partners part at equilibrium. Broadly, the kon is the rate constant with which the complex forms. In the case of B3, the binding result in test [5] is reported as “no binding”. Moreover, in [6], the Kd is 2.8 nM, the koff amounted to 0.0011 s⁻¹ and the kon was 390000 M⁻¹ s⁻¹.

B4: 218A7 Fab (Fab, V domains shown)
VH: B1 VH
VL: B1 VL with N1L, F2P, M3V, K19R, N46Q, S61G, S62A, H99K
notes: Light chain shuffled variant of 157A2
For B4, the koff was determined as 0.00081 s⁻¹ in [3] and 0.00097 s⁻¹ in [4].

B5: 170B2 mAb (antibody, V domains shown)
VH: EVQLVESGGGLVQPGGSLRLSCAASGFTFSSSWMYWVRQAPGKGLEFVSVINTRSGITHYVESVKGRFTISTDNAKNTLFLQMNSLKSEDTAVYYCATRIQGLIDYWGQGTQVTVSS
VL: DIVMTQSPSSLSVSLGDRVTITCQASQSIGSVNALAWYQQKPGQSLKLLIHGASRLQTGVPSRFSGSGSGTSFTLAISGVEAEDLATYYCLQDYAWPLTFGQGTKVELK
Take B5: in test [6], the Kd is 0.12 nM, the koff amounted to 9.3e-05 s⁻¹ and the kon was found to be 760000 M⁻¹ s⁻¹.

B6: 223G5 Fab (Fab, V domains shown)
VH: QVQLVESGGGLVQPGGSLRLSCAASGFTFSSYFMSWVRQAPGKGPEWVSGIHISGGITYYTDSVKGRFTISRDNAKNTLYLQMNSLRAEDTAVYYCVTPPGPFKAHYNGAKYWGKGTLVTVSS
VL: QSALTQPPSVSGSPGQSVTISCTGTSSDIGSYNYVSWYQQLPGKAPKLLIYEVNKRSSGVPDRFSGSKSGNTASLTISGLQAEDEADYYCASYRLYADYVFGGGTQLTVL
notes: Germlined variant of 166G8
B6: the koff in [3] was 0.000529 s⁻¹; in [4], 0.00584 s⁻¹.

B7: 166G8 mAb (antibody, IgG1, V domains shown)
VH: B6 VH with G16D, S30G, T61L, S85N, R87K, A88P, A110M
VL: NFMLTQPPSVSGTLGKTVTISCTGTSRDIGDYNYVSWYQQLPGLAPKLLIYKVNTRSSGTPDRFSGSKSGNTASLTISGLQSEDEADYYCASYRLYADYVFGGGTHLTVL
notes: VH family 5; produced as IgG1 with human constant domains
For B7, the binding result in [5] is on record as “no binding”. In [6], the Kd was found to be 0.022 nM, the koff worked out at 0.0002 s⁻¹ and the kon worked out at 9.2e+06 M⁻¹ s⁻¹.

B8: 280.346.TSY (benchmark humanised IL-22R antibody of WO2011/061119) (antibody, V domains shown)
VH: EVQLVESGGGLVQPGGSLRLSCAASGYSITAEYMNWVRQAPGKGLEWIGEINPSTGTTTYNQKFKGRFTISVDQSKNTAYLQMNSLRAEDTAVYYCARFDAYFDYWGQGTLVTVSS
VL: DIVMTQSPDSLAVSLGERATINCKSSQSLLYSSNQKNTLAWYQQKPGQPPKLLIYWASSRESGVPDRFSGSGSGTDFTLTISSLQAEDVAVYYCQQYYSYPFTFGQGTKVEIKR
With B8, the “IC50 blocking IL-20 (nM), Baf3hIL22R/IL20Rb cell line” value in test [7] worked out at 1.49 nM. Besides, in test [8], the “IC50 blocking IL-22 (nM), BWhIL22R cell line” value came out at 0.69 nM and the “Relative potency to 280.346.TSY (IL-22, BWhIL22R cell line)” value came out at 1 fold. For the same molecule, in test [9], the “EC50 (nM), STAT3-reporter in HEK cells after human IL22, Rhesus ECD” value came out at 0.43 nM. In addition, in test [10], the “EC50 (nM), STAT3-reporter in HEK cells after human IL22, Human ECD” value was 0.26 nM. Besides, the “EC50 (nM), STAT3-reporter in HEK cells after human IL22, Cyno ECD” value in [11] was 0.16 nM. Also, in test [6], the Kd was found to be 0.24 nM, the koff is 6.4e-05 s⁻¹ and the association rate constant (kon) came to 270000 M⁻¹ s⁻¹. In [12], the Kd worked out at 0.69 nM, the koff was determined as 0.00034 s⁻¹ and the kon is 490000 M⁻¹ s⁻¹.
